Measurements from patent publication US20190322720A1 (PRECISION BIOLOGICS, published 2019).

Tests used:
[1] = target: T1, MUC5AC truncation construct 1-136 (human, UniProt P98088 3212-4055); assay: immunofluorescence, transfected 293T cells
T1 construct: also called 136 residue construct
T1 sequence: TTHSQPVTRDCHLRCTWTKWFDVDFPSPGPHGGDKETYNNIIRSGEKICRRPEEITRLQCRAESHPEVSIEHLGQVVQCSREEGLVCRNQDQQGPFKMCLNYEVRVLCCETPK
Experimental: (§1) Cells were transiently transfected with 2 μg of MUC5AC constructs of Table 8 with LIPOFECTAMINE®. Cells were grown for about 72 hours, fixed with about 4% PFA in PBS, washed with PBS, permeabilized with about 0.2% […] in PBS and washed with PBS. Cells were then blocked with about 1% BSA in PBS, and about 2 μg/ml NPC-1 antibody was added to sample wells and about 2 μg/ml of an Isotype control was added for 1 hour at room temp. Cells were washed with PBS and second anti human-FITC antibody (1:500) was added to all wells and to the second antibody control wells. Cells were washed and mounted on slides with DAPI hard mount. Cover slides were allowed to sit over night at about 4° C. Slides were visualized with a Nikon Eclipse Ti microscope with an Andor camera. At least 3 random fields were counted per transfection.
(§2) This strategy was used to identify an about 15 amino acid-region that contains a NPC-1 epitope: […] (SEQ ID NO: 37). […] This is a repetitive sequence that also has some changes in it which are also probable scaffold for the binding sites for the NPC-1C antibody. This repetitive sequence and variations can be found in the longer deletions of MUC5AC and MUC5AC itself.

[2] = target: T2, MUC5AC truncation construct 1-85 (human, UniProt P98088 1734-1794); assay: immunofluorescence, transfected 293T cells
T2 construct: also called 85 residue construct
T2 chain: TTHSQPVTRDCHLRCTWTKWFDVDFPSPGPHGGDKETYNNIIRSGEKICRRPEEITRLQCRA
Experimental: as §1, §2

B1: NPC-1C (antibody, V domains shown)
VH: QVQLKESGPDLVAPSQSLSITCTVSGFSLSKFGVNWVRQPPGKGLEWLGVIWGDGSTSYNSGLISRLSISKENSKSQVFLKLNSLQADDTATYYCVKPGGDYWGHGTSVTVSS
VL: QVVLTQSPVIMSASPGEKVTMTCSASSSISYMYWYQQKPGTSPKRWIYDTSKLASGVPARFSGSGSGTSYSLTISNMEAGDAATYYCHQRDSYPWTFGGGTNLEIK
notes: Chimeric antibody with human IgG1 constant regions, made in CHO cells; used plain, biotin- or FITC-labelled, or coupled to beads; also called NEO-101; ensituximab
B1: no binding (tested: about 2 µg/ml) [1]; no binding (tested: about 2 µg/ml) [2].
